Test results published in PMC12615776, “Conformational alteration of DOCK5•ELMO1 signalosome on lipid membrane” (Communications Biology, 2025).

Target: T1, human ELMO1, full length (residues 1–727), tag cleaved (human, UniProt Q92556 1-727)
T1 construct: human ELMO1, full length, residues 1–727; Purified as a complex with DOCK5; also called engulfment and cell motility 1; source: FreeStyle 293-F cells, co-expressed with DOCK5, purified (Streptavidin Sepharose, TEV cleavage, SEC Superose 6); not shown: FLAG, N-terminal, cleaved
T1 sequence (Q92556 whole entry, the tested form may be a part): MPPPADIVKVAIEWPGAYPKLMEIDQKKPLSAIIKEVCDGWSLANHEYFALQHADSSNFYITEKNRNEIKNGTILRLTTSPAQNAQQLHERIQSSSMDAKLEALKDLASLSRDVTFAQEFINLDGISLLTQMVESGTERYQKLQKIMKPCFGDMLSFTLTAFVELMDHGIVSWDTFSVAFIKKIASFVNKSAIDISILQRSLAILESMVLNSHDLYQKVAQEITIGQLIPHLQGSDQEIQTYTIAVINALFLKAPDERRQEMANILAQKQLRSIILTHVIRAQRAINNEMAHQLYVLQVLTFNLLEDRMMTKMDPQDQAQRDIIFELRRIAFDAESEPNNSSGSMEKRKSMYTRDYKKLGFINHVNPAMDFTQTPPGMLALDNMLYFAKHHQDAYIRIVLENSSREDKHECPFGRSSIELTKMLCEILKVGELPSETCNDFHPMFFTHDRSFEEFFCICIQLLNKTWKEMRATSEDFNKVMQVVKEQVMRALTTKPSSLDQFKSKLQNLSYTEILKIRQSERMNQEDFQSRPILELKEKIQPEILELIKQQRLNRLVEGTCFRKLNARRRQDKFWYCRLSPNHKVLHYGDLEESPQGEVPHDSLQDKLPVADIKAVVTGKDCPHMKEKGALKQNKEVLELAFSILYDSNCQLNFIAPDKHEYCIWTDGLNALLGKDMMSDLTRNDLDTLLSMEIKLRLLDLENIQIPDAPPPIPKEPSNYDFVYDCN
Test: cryo-EM structure; purified DOCK5•ELMO1 complex mixed with a two-fold molar excess of Rac1^G15A-His10 and RhoG^Q61L-His10, pre-incubated on ice at least 1 h in 20 mM HEPES-NaOH pH 7.0, 150 mM NaCl, 1 mM MgCl2 (final 0.4 μM); bound to a lipid monolayer-coated grid [67PC/21PA/6PIP3/6DOGS-NTA Ni (mol%)]; single-particle analysis, C2, 6.98 Å (local 7.52 Å)
Settings: both partners purified

binding result: binds
B1: human RhoG (residues 1–191, Q61L mutant), C-terminal His10 (natural protein)
chain: not shown
notes: human RhoG, residues 1–191, Q61L; 10 μM GTP and 1 mM MgCl2 were added during purification to obtain the active form; Anchored to the lipid monolayer through His10 and DOGS-NTA(Ni); also called RhoG^Q61L; constitutively active mutant of RhoG; source: E. coli cell-free protein synthesis, purified (HisTrap, TEV cleavage, second HisTrap, SEC Superdex 75); not shown: N11 (modified natural …)
